{"source": "patent US20110300138A1", "about": "(published 2011)", "key": {"[1]": {"target": "thyroid stimulating hormone receptor (TSHR), full length human TSHR (human) (UniProt P16473)", "test": "TSH-biotin competition ELISA, TSHR coated wells; negative control, 10 µg/mL in assay buffer"}, "[2]": {"target": "human TSH receptor (full length) coated on ELISA plate wells (human) (UniProt P16473)", "test": "TSH-biotin binding inhibition ELISA, TSHR coated wells; 10 µg/mL in assay buffer; negative control MAb"}, "[3]": {"target": "TSH receptor (TSHR) coated on tubes (human) (UniProt P16473)", "test": "inhibition of 125I-K1-70 IgG binding to TSHR coated tubes; negative control 0.001 µg/mL in assay buffer"}, "[4]": {"target": "TSHR (thyroid stimulating hormone receptor), full length human (human) (UniProt P16473)", "test": "negative control; competitor ^125I-K1-70 IgG, TSHR coated tubes; 1 µg/mL in HBD"}, "[5]": {"target": "TSH receptor (full length human TSHR) (human) (UniProt P16473)", "test": "competition ELISA: inhibition of M22 Fab-peroxidase (competitor) binding to TSHR coated wells; negative control at 100 µg/mL diluted in assay buffer"}, "[6]": {"target": "TSH receptor (full length human TSHR) (human) (UniProt P16473)", "test": "competition ELISA: inhibition of M22 Fab-peroxidase (competitor) binding to TSHR coated wells; negative control at 10 µg/mL diluted in HBD serum pool"}, "[7]": {"target": "thyroid stimulating hormone receptor (TSHR), full length human TSHR (human) (UniProt P16473)", "test": "TSH-biotin competition ELISA, TSHR coated wells; negative control, 0.01 µg/mL in HBD serum"}, "[8]": {"target": "human thyroid stimulating hormone receptor (TSHR), full length (human) (UniProt P16473)", "test": "125I-K1-70 Fab (competitor) binding to TSHR coated tubes; negative control MAb 100 µg/mL in assay buffer"}, "[9]": {"target": "TSH receptor (TSHR), full length human, coated on tubes (human) (UniProt P16473)", "test": "inhibition of 125I-TSH binding to TSHR coated tubes; 100 µg/mL, diluted in assay buffer"}, "[10]": {"target": "TSH receptor (TSHR) coated on tubes (human) (UniProt P16473)", "test": "inhibition of 125I-K1-70 IgG binding to TSHR coated tubes; negative control 0.1 µg/mL in assay buffer"}, "[11]": {"target": "TSH receptor (TSHR), full length human, coated on tubes (human) (UniProt P16473)", "test": "inhibition of 125I-K1-18 IgG binding to TSHR coated tubes; competitor 125I-K1-18 IgG; negative control sample at 10 µg/mL in assay buffer"}, "[12]": {"target": "TSHR (thyroid stimulating hormone receptor), full length human (human) (UniProt P16473)", "test": "negative control; competitor ^125I-K1-70 IgG, TSHR coated tubes; 0.1 µg/mL in HBD"}, "[13]": {"target": "TSHR (thyroid stimulating hormone receptor), full length human (human) (UniProt P16473)", "test": "competitor ^125I-K1-70 IgG, TSHR coated tubes; 0.01 µg/mL in assay buffer"}, "[14]": {"target": "TSH receptor (TSHR), full length human, coated on tubes (human) (UniProt P16473)", "test": "inhibition of 125I-K1-18 IgG binding to TSHR coated tubes; competitor 125I-K1-18 IgG; sample at 1 µg/mL in assay buffer"}, "[15]": {"target": "TSH receptor (full length human TSHR) (human) (UniProt P16473)", "test": "competition ELISA: inhibition of M22 Fab-peroxidase (competitor) binding to TSHR coated wells; test sample at 100 µg/mL diluted in HBD serum pool"}, "[16]": {"target": "TSHR with His105 mutated to Ala (expressed in CHO cells) (human) (UniProt P16473)", "test": "cell-based or functional assay"}, "[17]": {"target": "TSHR with Arg274 mutated to Ala, expressed in CHO cells (human) (UniProt P16473)", "test": "cell-based or functional assay"}, "[18]": {"target": "TSH receptor (TSHR), full length human, coated on tubes (human) (UniProt P16473)", "test": "inhibition of 125I-K1-18 IgG (competitor) binding to TSHR coated tubes; test sample at 10 µg/mL in assay buffer"}, "[19]": {"target": "thyroid stimulating hormone receptor (full length human TSHR) (human) (UniProt P16473)", "test": "ELISA: inhibition of M22 Fab-peroxidase (competitor) binding to TSHR coated wells; 100 µg/mL, diluted in HBD serum pool"}, "[20]": {"target": "thyroid stimulating hormone receptor (TSHR), full length, coated on tubes (human) (UniProt P16473)", "test": "inhibition of 125I-TSH binding, TSHR coated tubes; antibody 1 µg/mL in HBD serum pool"}, "[21]": {"target": "TSH receptor (TSHR), full length human, coated on tubes (human) (UniProt P16473)", "test": "inhibition of 125I-TSH binding to TSHR coated tubes; 100 µg/mL, diluted in HBD serum pool"}, "[22]": {"target": "TSH receptor (TSHR) coated on tubes (human) (UniProt P16473)", "test": "inhibition of 125I-K1-70 IgG binding to TSHR coated tubes; sample 0.01 µg/mL in assay buffer"}, "[23]": {"target": "human TSH receptor (full length) coated on ELISA plate wells (human) (UniProt P16473)", "test": "TSH-biotin binding inhibition ELISA, TSHR coated wells; 10 µg/mL in assay buffer"}}}
{"molecule": "5B3 IgG (antibody)", "values": [{"measurement": "Inhibition of binding (%)", "setting": "[1]", "value": -8.4, "unit": "%"}, {"measurement": "% inhibition of TSH-biotin binding", "setting": "[2]", "value": 0.9, "unit": "%"}, {"measurement": "Inhibition of binding (%)", "setting": "[3]", "value": -1.5, "unit": "%"}, {"measurement": "Inhibition of binding (%)", "setting": "[4]", "value": -1.5, "unit": "%"}, {"measurement": "Inhibition of binding (%)", "setting": "[5]", "value": 8.1, "unit": "%"}, {"measurement": "Inhibition of binding (%)", "setting": "[6]", "value": 4.9, "unit": "%"}, {"measurement": "Inhibition of binding (%)", "setting": "[7]", "value": -5.1, "unit": "%"}, {"measurement": "Inhibition of binding (%)", "setting": "[8]", "value": 1.4, "unit": "%"}, {"measurement": "Inhibition of binding (%)", "setting": "[9]", "value": 22.4, "unit": "%"}, {"measurement": "Inhibition of binding (%)", "setting": "[10]", "value": 1, "unit": "%"}, {"measurement": "Inhibition of binding (%)", "setting": "[11]", "value": -2.7, "unit": "%"}, {"measurement": "Inhibition of binding (%)", "setting": "[12]", "value": -3.6, "unit": "%"}]}
{"molecule": "9D33 IgG (antibody)", "values": [{"measurement": "Inhibition of binding (%)", "setting": "[13]", "value": 9.4, "unit": "%"}, {"measurement": "Inhibition of binding (%)", "setting": "[14]", "value": 63, "unit": "%"}, {"measurement": "Inhibition of binding (%)", "setting": "[15]", "value": 65.9, "unit": "%"}]}
{"molecule": "TSH (ligand)", "values": [{"measurement": "Cyclic AMP produced (pmol/mL), TSH 0.01 ng/mL", "setting": "[16]", "value": 4.8, "unit": "pmol/mL"}, {"measurement": "Cyclic AMP produced (pmol/mL), TSH 0.03 ng/mL", "setting": "[16]", "value": 3.55, "unit": "pmol/mL"}, {"measurement": "Cyclic AMP produced (pmol/mL), TSH 0.1 ng/mL", "setting": "[16]", "value": 4.82, "unit": "pmol/mL"}, {"measurement": "Cyclic AMP produced (pmol/mL), TSH 0.3 ng/mL", "setting": "[16]", "value": 11.9, "unit": "pmol/mL"}, {"measurement": "Cyclic AMP produced (pmol/mL), TSH 1 ng/mL", "setting": "[16]", "value": 34.6, "unit": "pmol/mL"}, {"measurement": "Cyclic AMP produced (pmol/mL), TSH 3 ng/mL", "setting": "[16]", "value": 58.3, "unit": "pmol/mL"}, {"measurement": "Mutated/Wild type (%), TSH 0.01 ng/mL", "setting": "[16]", "value": 308, "unit": "%"}, {"measurement": "Mutated/Wild type (%), TSH 0.03 ng/mL", "setting": "[16]", "value": 147, "unit": "%"}, {"measurement": "Mutated/Wild type (%), TSH 0.1 ng/mL", "setting": "[16]", "value": 118, "unit": "%"}, {"measurement": "Mutated/Wild type (%), TSH 0.3 ng/mL", "setting": "[16]", "value": 104, "unit": "%"}, {"measurement": "Mutated/Wild type (%), TSH 1 ng/mL", "setting": "[16]", "value": 76, "unit": "%"}, {"measurement": "Mutated/Wild type (%), TSH 3 ng/mL", "setting": "[16]", "value": 75, "unit": "%"}, {"measurement": "Cyclic AMP produced (pmol/mL), TSH 0.01 ng/mL, Experiment 1", "setting": "[17]", "value": 1.97, "unit": "pmol/mL"}, {"measurement": "Cyclic AMP produced (pmol/mL), TSH 0.01 ng/mL, Experiment 2", "setting": "[17]", "value": 1.37, "unit": "pmol/mL"}, {"measurement": "Cyclic AMP produced (pmol/mL), TSH 0.03 ng/mL, Experiment 1", "setting": "[17]", "value": 4.14, "unit": "pmol/mL"}, {"measurement": "Cyclic AMP produced (pmol/mL), TSH 0.03 ng/mL, Experiment 2", "setting": "[17]", "value": 2.94, "unit": "pmol/mL"}, {"measurement": "Cyclic AMP produced (pmol/mL), TSH 0.1 ng/mL, Experiment 1", "setting": "[17]", "value": 9.38, "unit": "pmol/mL"}, {"measurement": "Cyclic AMP produced (pmol/mL), TSH 0.1 ng/mL, Experiment 2", "setting": "[17]", "value": 8.29, "unit": "pmol/mL"}, {"measurement": "Cyclic AMP produced (pmol/mL), TSH 0.3 ng/mL, Experiment 1", "setting": "[17]", "value": 27.3, "unit": "pmol/mL"}, {"measurement": "Cyclic AMP produced (pmol/mL), TSH 0.3 ng/mL, Experiment 2", "setting": "[17]", "value": 25.5, "unit": "pmol/mL"}, {"measurement": "Cyclic AMP produced (pmol/mL), TSH 1 ng/mL, Experiment 1", "setting": "[17]", "value": 67.6, "unit": "pmol/mL"}, {"measurement": "Cyclic AMP produced (pmol/mL), TSH 1 ng/mL, Experiment 2", "setting": "[17]", "value": 58.5, "unit": "pmol/mL"}, {"measurement": "Cyclic AMP produced (pmol/mL), TSH 3 ng/mL, Experiment 1", "setting": "[17]", "value": 98.8, "unit": "pmol/mL"}, {"measurement": "Cyclic AMP produced (pmol/mL), TSH 3 ng/mL, Experiment 2", "setting": "[17]", "value": 73.2, "unit": "pmol/mL"}, {"measurement": "Mutated/Wild type (%), TSH 0.01 ng/mL, Experiment 1", "setting": "[17]", "value": 106, "unit": "%"}, {"measurement": "Mutated/Wild type (%), TSH 0.01 ng/mL, Experiment 2", "setting": "[17]", "value": 55, "unit": "%"}, {"measurement": "Mutated/Wild type (%), TSH 0.03 ng/mL, Experiment 1", "setting": "[17]", "value": 125, "unit": "%"}, {"measurement": "Mutated/Wild type (%), TSH 0.03 ng/mL, Experiment 2", "setting": "[17]", "value": 57, "unit": "%"}, {"measurement": "Mutated/Wild type (%), TSH 0.1 ng/mL, Experiment 1", "setting": "[17]", "value": 64, "unit": "%"}, {"measurement": "Mutated/Wild type (%), TSH 0.1 ng/mL, Experiment 2", "setting": "[17]", "value": 61, "unit": "%"}, {"measurement": "Mutated/Wild type (%), TSH 0.3 ng/mL, Experiment 1", "setting": "[17]", "value": 56, "unit": "%"}, {"measurement": "Mutated/Wild type (%), TSH 0.3 ng/mL, Experiment 2", "setting": "[17]", "value": 64, "unit": "%"}, {"measurement": "Mutated/Wild type (%), TSH 1 ng/mL, Experiment 1", "setting": "[17]", "value": 74, "unit": "%"}, {"measurement": "Mutated/Wild type (%), TSH 1 ng/mL, Experiment 2", "setting": "[17]", "value": 79, "unit": "%"}, {"measurement": "Mutated/Wild type (%), TSH 3 ng/mL, Experiment 1", "setting": "[17]", "value": 83, "unit": "%"}, {"measurement": "Mutated/Wild type (%), TSH 3 ng/mL, Experiment 2", "setting": "[17]", "value": 82, "unit": "%"}]}
{"molecule": "5C9 IgG (antibody, from another filing, V domains shown) VH: EVQLVESGGGLIQPGGSLRLSCAASGFTVSSNYMSWVRQAPGKGLEWVSVTYSGGSTSYADSVKGRFTISRDNSKNTLYLQMNSLRAEDTAVYYCARGGRYCSSISCYARSGCDYWGQGTLVTVSS VL: AIQMTQSPSSLSASVGDRVTITCRASQSISNYLNWYQQKPGKAPKLLIYAASSLQSGVPSRFSGSGSGTDFTLTISSLQPEDFATYYCQQSYSSPSTTFGQGTKLEIK", "values": [{"measurement": "Inhibition of binding (%)", "setting": "[18]", "value": 65.9, "unit": "%"}, {"measurement": "Inhibition of binding (%)", "setting": "[19]", "value": 19.6, "unit": "%"}, {"measurement": "Inhibition of binding (%)", "setting": "[20]", "value": 19.7, "unit": "%"}, {"measurement": "Inhibition of binding (%)", "setting": "[21]", "value": 59.2, "unit": "%"}, {"measurement": "Inhibition of binding (%)", "setting": "[22]", "value": 4.5, "unit": "%"}, {"measurement": "% inhibition of TSH-biotin binding", "setting": "[23]", "value": 58.2, "unit": "%"}]}
